Results on one molecule are retold here after US20140193915, “COMPOSITIONS AND METHODS FOR CUSTOM SITE-SPECIFIC DNA RECOMBINASES” (Monsanto Technology, LLC, published 2014).

One data set has as its target T1, sN-TALER IIa-1 (synthetic).
T1 chain: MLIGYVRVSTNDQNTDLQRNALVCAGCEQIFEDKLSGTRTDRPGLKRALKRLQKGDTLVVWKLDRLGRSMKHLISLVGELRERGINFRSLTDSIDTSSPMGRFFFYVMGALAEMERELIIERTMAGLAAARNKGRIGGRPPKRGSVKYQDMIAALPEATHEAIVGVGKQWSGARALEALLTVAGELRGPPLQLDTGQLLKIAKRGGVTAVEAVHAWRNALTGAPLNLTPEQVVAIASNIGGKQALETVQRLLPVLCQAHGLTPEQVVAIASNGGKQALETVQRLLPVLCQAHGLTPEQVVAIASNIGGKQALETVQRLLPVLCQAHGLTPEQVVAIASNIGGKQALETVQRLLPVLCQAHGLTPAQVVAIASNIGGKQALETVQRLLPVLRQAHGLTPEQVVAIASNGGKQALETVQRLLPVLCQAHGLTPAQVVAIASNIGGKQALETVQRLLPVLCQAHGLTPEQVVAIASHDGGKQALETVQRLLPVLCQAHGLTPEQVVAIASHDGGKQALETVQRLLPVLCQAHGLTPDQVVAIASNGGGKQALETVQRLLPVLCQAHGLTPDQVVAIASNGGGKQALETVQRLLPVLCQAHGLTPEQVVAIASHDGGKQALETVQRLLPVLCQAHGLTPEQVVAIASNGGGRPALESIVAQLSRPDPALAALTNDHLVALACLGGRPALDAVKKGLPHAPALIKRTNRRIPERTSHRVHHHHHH
Kind of data set: cell_activity; E. coli. To be noted: tags: 6-His. The method, boiled down: (§1)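 DH5alpha cells co-transformed (heat shock or electroporation) with N-TALER expression and reporter plasmids at ~1:1 mass ratio; reporter alone as control. Plated on chloramphenicol/kanamycin/X-gal, grown 37° C. for 18 to 36 hours; recombination scored by colony colour.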

In the next data set the target is T2, sN-TALER III-1 (synthetic).
T2 chain: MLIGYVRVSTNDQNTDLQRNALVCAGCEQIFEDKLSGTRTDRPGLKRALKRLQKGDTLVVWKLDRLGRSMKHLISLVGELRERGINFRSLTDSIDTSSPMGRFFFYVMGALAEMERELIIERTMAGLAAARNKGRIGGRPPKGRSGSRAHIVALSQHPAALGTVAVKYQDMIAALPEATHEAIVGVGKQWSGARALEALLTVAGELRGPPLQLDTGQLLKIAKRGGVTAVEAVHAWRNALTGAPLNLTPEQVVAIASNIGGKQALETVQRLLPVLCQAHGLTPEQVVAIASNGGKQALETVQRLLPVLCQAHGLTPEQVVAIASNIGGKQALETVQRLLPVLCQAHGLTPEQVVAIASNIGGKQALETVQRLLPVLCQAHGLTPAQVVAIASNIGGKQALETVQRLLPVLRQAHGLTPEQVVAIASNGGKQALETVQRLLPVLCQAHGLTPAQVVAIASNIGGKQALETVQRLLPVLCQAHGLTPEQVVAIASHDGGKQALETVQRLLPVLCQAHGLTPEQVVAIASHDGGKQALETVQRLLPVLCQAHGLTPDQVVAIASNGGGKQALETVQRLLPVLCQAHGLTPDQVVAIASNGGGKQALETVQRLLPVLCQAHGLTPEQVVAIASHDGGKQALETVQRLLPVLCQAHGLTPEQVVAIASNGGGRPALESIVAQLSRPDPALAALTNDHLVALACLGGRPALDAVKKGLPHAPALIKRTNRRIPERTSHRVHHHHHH
The data set is described as follows: cell_activity; E. coli. As to conditions: tags: 6-His. The essentials: as §1

B1: Gin18TALE+0 (dsDNA)
DNA 1: AGAAGGTATTTATACCAAAACCATGGTTTACATATAAATACCTTCT
DNA 2: AGAAGGTATTTATATGTAAACCATGGTTTTGGTATAAATACCTTCT
Take B1: the figures for the activity with sN-TALER IIa-1 and with sN-TALER III-1 were 4 score and 4.5 score, respectively.
